Assay results from the supplement of paper PMC10724198.
± gives the standard deviation of the averaged measurements.

Test system: Saccharomyces cerevisiae
Experiment: protein stability index of tFT-peptide fusion (C-terminal peptide) (PSI (0-1 scale)); higher = more stable (slower turnover)
Settings: genetic background: wild type; temperature: 30 C
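Further: PSI is a weighted mean of sequencing reads over stability bins, variants kept only with over 10 reads, mCherry proximal and sfGFP distal, peptide attached via GGGS linker.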

Row | Sequence | protein stability index
1 | LPPPLPPCPSGP | 0.77 ± 0.048
2 | YLTNIHQRVLLP | 0.659 ± 0.031
3 | AIKCSDTLLTWV | 0.7194 ± 0.0042
4 | PPPPPPLVLSPL | 0.678 ± 0.02
5 | GGAGGRRRIGGG | 0.622 ± 0.048
6 | PPPIPGDPTPCP | 0.667 ± 0.021
7 | VPLIFSTFVSIS | 0.54 ± 0.009
8 | DSAVTPPTTCLP | 0.719 ± 0.028
9 | LDVAFLMSRFSS | 0.731 ± 0.024
10 | PAEGVVGGKCYV | 0.685 ± 0.092
11 | PLPRSPLHPSVP | 0.74 ± 0.03
12 | VFHLATSVRRRY | 0.672 ± 0.051
13 | SLPPSRSPSPTL | 0.665 ± 0.13
14 | LQWSPQAELEGT | 0.712 ± 0.043
15 | RIGELRYATQMK | 0.676 ± 0.052
16 | VVWCSWGFLFSA | 0.625 ± 0.042
17 | CSLSRFLGCWGF | 0.668 ± 0.062
18 | KKKNKEKSKKKK | 0.761 ± 0.05
19 | ELVYVFLGNLPP | 0.632 ± 0.034
20 | DLRVSLLSHLSL | 0.679 ± 0.11
21 | PVGFPLPCPFFT | 0.688 ± 0.035
22 | FSLFSLPFPFPL | 0.7752 ± 0.0015
23 | KKKSNNNNQKPH | 0.737 ± 0.016
24 | RIRRITAGRQRY | 0.793 ± 0.067
25 | SGVGCLVFGRGF | 0.645 ± 0.046
26 | RHSHSLSITHLP | 0.675 ± 0.091

Row | Sequence | protein stability index
27 | WPVRNRIQPPPR | 0.705 ± 0.051
28 | LFLSLFLFPSLS | 0.57 ± 0.03
29 | VVGAVSASLAGV | 0.662 ± 0.056
30 | FWKSVMRYYFKR | 0.669 ± 0.027
31 | VGNNERDLQQIE | 0.665 ± 0.032
32 | RLASPSIISSTL | 0.702 ± 0.0076
33 | GERSGVSIRHEG | 0.726 ± 0.016
34 | LACMWICPHIQA | 0.606 ± 0.023
35 | LVVSHMSQPISM | 0.64 ± 0.03
36 | GVVRLYYLRIGR | 0.652 ± 0.11
37 | GGSRRRAVGAGV | 0.709 ± 0.057
38 | VDRAPFHLGRQG | 0.712 ± 0.043
39 | LGGRTWTLVRSG | 0.64 ± 0.033
40 | TPPPRSFHRFPC | 0.694 ± 0.043
41 | RPLPPLPRPPSP | 0.557 ± 0.02
42 | LGVAFCAPRLFY | 0.743 ± 0.023
43 | VSFSSLLRFCRG | 0.671 ± 0.0091
44 | PSPPPLPPLPPF | 0.682 ± 0.029
45 | ECSGGGCGQRVG | 0.733 ± 0.056
46 | HRPTRLIKKNLA | 0.732 ± 0.033
47 | VGVLSYYTCYEL | 0.689 ± 0.18
48 | PPSTNRDGRKRT | 0.644 ± 0.026
49 | LKDQFKNKNKSS | 0.531 ± 0.04
50 | IRRLCGSSRPLP | 0.708 ± 0.037
51 | RDSDSSLRHNSH | 0.682 ± 0.061
52 | CSRFPGSVRVVS | 0.615 ± 0.012

Row | Sequence | protein stability index
53 | SSTEYYDIRKIR | 0.675 ± 0.025
54 | SRPPPPSIYLSI | 0.6912 ± 0.0021
55 | GSRPVSAGCAYS | 0.655 ± 0.038
56 | HDLVRECVGPVH | 0.602 ± 0.024
57 | LGCSVGESVGAG | 0.68 ± 0.03
58 | PTPPPLLTRPLP | 0.709 ± 0.11
59 | RLYGILLLSGKE | 0.683 ± 0.019
60 | LAHAGSRPPTPG | 0.6754 ± 0.0016
61 | CPFTDPRRQQSV | 0.646 ± 0.028
62 | HILSPPPRPPLV | 0.719 ± 0.02
63 | LVGLVCDFVFVL | 0.589 ± 0.007
64 | GRGGLGGWEWDR | 0.712 ± 0.034
65 | PDTVRALMRGYK | 0.721 ± 0.016
66 | LAYIFTPVRTTG | 0.799 ± 0.26
67 | AKTQGLLMVTLQ | 0.712 ± 0.12
68 | RVSGSFSCVCES | 0.6814 ± 0.0054
69 | PYSPPYSLTSLS | 0.708 ± 0.075
70 | FRSFLDHPRSPC | 0.729 ± 0.029
71 | RGAPLSPPPPRS | 0.714 ± 0.13
72 | HRRMGVGGCLEE | 0.682 ± 0.046
73 | VGCPGGVWVFRG | 0.535 ± 0.011
74 | GQRWADGGFVEV | 0.783 ± 0.1
75 | RALPLLPLPRLS | 0.66 ± 0.024
76 | EVTEIAQFRDKR | 0.7 ± 0.017
77 | ISPRSRSCAYGV | 0.734 ± 0.073
78 | GVCGRWWTCMGV | 0.722 ± 0.061

Row | Sequence | protein stability index
79 | LRRVGKLRESGS | 0.688 ± 0.018
80 | VGGRAAIGRGGW | 0.706 ± 0.012
81 | DRGFSVGGGWGW | 0.676 ± 0.066
82 | IQIGESLYFWFV | 0.654 ± 0.066
83 | PLWHCFRFLSGS | 0.607 ± 0.014
84 | RKKHSHKKAKKK | 0.702 ± 0.014
85 | VSCVRGFFLFPC | 0.699 ± 0.022
86 | LRQEVVRPEWYM | 0.66 ± 0.054
87 | VMVNTAWERRKR | 0.673 ± 0.065
88 | EWVPDIANLRRR | 0.752 ± 0.16
89 | QKKKKKIKEHSK | 0.626 ± 0.031
90 | TTCKTPPTYSFP | 0.71 ± 0.033
91 | TRWRPPCAPSGS | 0.742 ± 0.076
92 | VCMSLVRGEAGG | 0.657 ± 0.011
93 | ITALSSPVRDKL | 0.646 ± 0.061
94 | PSAPTNPHARLA | 0.689 ± 0.051
95 | FAVSTVCWCCGL | 0.647 ± 0.041
96 | IESRGCSMQKRL | 0.7489 ± 0.0039
97 | LYSDLLTDDKNC | 0.666 ± 0.023
98 | CHSLEDRPDDPC | 0.758 ± 0.1
99 | EKKKQKDKKKKN | 0.705 ± 0.0078
100 | SLQRLFGRGGMV | 0.643 ± 0.1
101 | CTAPIASWKRVL | 0.694 ± 0.029
